# In patent US20090252748A1:
# Experiments:
# [1] = target: human Sp35 protein expressed on transfected cells (human) (UniProt Q96FE5); assay: FACS, live human LINGO-1 transfected 293 cells, PE-labelled secondary antibody without primary antibody, FL2-H; Cell only 4.71 [panel 2nd Ab only]
# [2] = target: human Sp35 protein expressed on transfected cells (human) (UniProt Q96FE5); assay: FACS, live human LINGO-1 transfected 293 cells, PE-labelled secondary antibody without primary antibody, FL2-H; Cell only 0.94 [panel 2nd Ab only]
# [3] = target: human Sp35 protein expressed on transfected cells (human) (UniProt Q96FE5); assay: FACS, live human LINGO-1 transfected 293 cells, PE-labelled secondary antibody without primary antibody, FL2-H; Cell only 4.47 [panel 2nd Ab only]
# [4] = target: human Sp35 protein expressed on transfected cells (human) (UniProt Q96FE5); assay: FACS, live human LINGO-1 transfected 293 cells, PE-labelled secondary antibody without primary antibody, FL2-H; Cell only 5.81 [panel 2nd Ab only]
# CD32 = CD32 binding assay, format not described
# Sequence of human Sp35 protein expressed on transfected cells (human) (Q96FE5 40-620): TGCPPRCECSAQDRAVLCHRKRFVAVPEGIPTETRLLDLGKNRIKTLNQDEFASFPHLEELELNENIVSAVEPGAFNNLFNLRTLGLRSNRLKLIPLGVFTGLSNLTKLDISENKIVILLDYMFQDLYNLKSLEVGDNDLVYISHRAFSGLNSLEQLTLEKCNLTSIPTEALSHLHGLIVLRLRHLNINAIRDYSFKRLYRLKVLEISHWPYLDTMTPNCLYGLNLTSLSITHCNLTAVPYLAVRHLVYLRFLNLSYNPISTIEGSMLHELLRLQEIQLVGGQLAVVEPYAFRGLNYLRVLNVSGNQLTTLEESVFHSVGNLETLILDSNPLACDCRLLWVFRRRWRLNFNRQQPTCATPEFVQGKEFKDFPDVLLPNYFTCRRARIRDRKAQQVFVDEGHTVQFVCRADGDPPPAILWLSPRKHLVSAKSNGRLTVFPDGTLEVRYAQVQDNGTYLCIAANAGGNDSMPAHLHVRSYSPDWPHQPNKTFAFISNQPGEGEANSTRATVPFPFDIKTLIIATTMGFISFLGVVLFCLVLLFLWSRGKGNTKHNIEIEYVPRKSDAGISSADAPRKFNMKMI
Substance,(FL2-H) Median [1],number over the marker gate of the FL2-H histogram [2],(FL2-H) Geom. Mean [3],(FL2-H) Mean [4],IC50 (CD32) [mg/L]
2nd Ab only (PE-labelled secondary antibody without primary antibody),6.76,5.52,6.6,8.78,–
Li33Ig2 agly (antibody),–,–,–,–,25
Li33Ig2 wt (antibody),–,–,–,–,4.3
